Data taken from patent publication US20230181753A1 (INSERM INSTITUT NATIONAL DE LA SANTE ET DE LA RECHERCHE …, published 2023).

T1: ICOS (Inducible T cell costimulator) (UniProt Q9Y6W8 21-199, limits assumed)
T1 sequence (looked up): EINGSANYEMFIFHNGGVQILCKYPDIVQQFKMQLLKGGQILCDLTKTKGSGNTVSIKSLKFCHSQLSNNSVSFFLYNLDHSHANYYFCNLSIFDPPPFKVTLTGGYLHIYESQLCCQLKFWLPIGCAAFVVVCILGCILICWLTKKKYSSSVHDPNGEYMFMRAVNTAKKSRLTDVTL


Columns and labels:
[1] = substrate: ICOS (Inducible T cell costimulator) (UniProt Q9Y6W8); assay: flow cytometry, staining of MyLa cells
[2] = substrate: ICOS (Inducible T cell costimulator) (UniProt Q9Y6W8); assay: flow cytometry, staining of HUT78 cells
[3] = substrate: ICOS (Inducible T cell costimulator) (UniProt Q9Y6W8); assay: flow cytometry, staining of MJ cells
[4] = target: T1, ICOS (Inducible T cell costimulator); assay: cell-based or functional assay

MFI ratio [1]	MFI ratio [2]	MFI ratio [3]	Binder	IC50, cell viability (alamarBlue), HUT78 cells [4] [ng/mL]	IC50, cell viability (alamarBlue), Jurkat-ICOS cells [4] [ng/mL]	IC50, cell viability (alamarBlue), MJ cells [4] [ng/mL]	IC50, cell viability (alamarBlue), MyLa cells [4] [ng/mL]
144	4.5	96	314.8 mAb (antibody, V domains shown) VH: QVQLQQPGTELMKPGASVKLSCKASGYTFTTYWMHWVKQRPGQGLEWIGEIDPSDSYVNYNQNFKGKATLTVDKSSSTAYIQLSSLTSEDSAVYFCARSPDYYGTSLAWFDYWGQGTLVTVST VL: DIVMTQAAPSVPVTPGESVSISCRSSKSPLHSNGNIYLYWFLQRPGQSPQLLIYRMSNLASGVPDRFSGSGSGTTFTLKISRVEAEDVGVYYCMQHLEYPYTFGGGTKLEIK				
			anti-ICOS-PBD ADC (antibody, V domains shown, coupled to pyrrolobenzodiazepine (PBD); site and linker not stated) VH: QVQLQQPGTELMKPGASVKLSCKASGYTFTTYWMHWVKQRPGQGLEWIGEIDPSDSYVNYNQNFKGKATLTVDKSSSTAYIQLSSLTSEDSAVYFCARSPDYYGTSLAWFDYWGQGTLVTVST VL: DIVMTQAAPSVPVTPGESVSISCRSSKSPLHSNGNIYLYWFLQRPGQSPQLLIYRMSNLASGVPDRFSGSGSGTTFTLKISRVEAEDVGVYYCMQHLEYPYTFGGGTKLEIK	9	0.7	0.8	1.2
			anti-ICOS-MMAE ADC (anti-ICOS 314.8-MMAE) (antibody, V domains shown, coupled to MMAE; site and linker not stated) VH: QVQLQQPGTELMKPGASVKLSCKASGYTFTTYWMHWVKQRPGQGLEWIGEIDPSDSYVNYNQNFKGKATLTVDKSSSTAYIQLSSLTSEDSAVYFCARSPDYYGTSLAWFDYWGQGTLVTVST VL: DIVMTQAAPSVPVTPGESVSISCRSSKSPLHSNGNIYLYWFLQRPGQSPQLLIYRMSNLASGVPDRFSGSGSGTTFTLKISRVEAEDVGVYYCMQHLEYPYTFGGGTKLEIK		6.7	36.2	8.2
